Source: patent publication US20240270819A1 (ELANCO US, published 2024)

Assays:
[1] = target: canine FcRn with a poly-His tag / canine B2M heterodimer complex (canine); experiment: SPR (Biacore T200), pH 6.0; biotinylated FcRn/B2M immobilised, Fc as analyte
[2] = target: T1, canine IL4 (Sino Biological Inc, Cat #70021-DNAE-5) (canine, UniProt O77762 25-132); experiment: cell-based or functional assay
T1 sequence (looked up): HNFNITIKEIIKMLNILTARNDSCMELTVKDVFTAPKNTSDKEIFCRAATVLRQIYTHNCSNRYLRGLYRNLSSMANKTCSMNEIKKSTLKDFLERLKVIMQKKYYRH

Molecule	koff [1] [s⁻¹]	TF1 cell proliferation assay (CellTiter-Glo luminescence), IC50 by 4 parameter logistic fit [2] [nM]
variant canine IgG-B Fc polypeptide L(23)S	0.241	–
canine IL4RECD-IL13RECD-IgGB Fc (Fc fusion, Biotinylated when captured on the tips in the sequential binding experiment; secreted from CHO cells, so glycosylated.) SGSVKVLHEPSCFSDYISTSVCQWKMDHPTNCSAELRLSYQLDFMGSENHTCVPENREDSVCVCSMPIDDAVEADVYQLDLWAGQQLLWSGSFQPSKHVKPRTPGNLTVHPNISHTWLLMWTNPYPTENHLHSELTYMVNVSNDNDPEDFKVYNVTYMGPTLRLAASTLKSGASYSARVRAWAQTYNSTWSDWSPSTTWLNYYEPGGGSGTETQPPVTNLSVSVENLCTVIWTWDPPEGASPNCTLRYFSHFDNKQDKKIAPETHRSKEVPLNERICLQVGSQCSTNESDNPSILVEKCTPPPEGDPESAVTELQCVWHNLSYMKCTWLPGRNTSPDTNYTLYYWHSSLGKILQCEDIYREGQHIGCSFALTNLKDSSFEQHSVQIVVKDNAGKIRPSFNIVPLTSHVKPDPPHIKRLFFQNGNLYVQWKNPQNFYSRCLSYQVEVNNSQTETNDIFYVEEAKCQNSEFEGNLEGTICFMVPGVLPDTLNTVRIRVRTNKLCYEDDKLWSNWSQAMSIGENTDPTPKRENGRVPRPPDCPKCPAPEMLGGPSVFIFPPKPKDTLLIARTPEVTCVVVDLDPEDPEVQISWFVDGKQMQTAKTQPREEQFNGTYRVVSVLPIGHQDWLKGKQFTCKVNNKALPSPIERTISKARGQAHQPSVYVLPPSREELSKNTVSLTCLIKDFFPPDIDVEWQSNGQQEPESKYRTTPPQLDEDGSYFLYSKLSVDKSRWQRGDTFICAVMHEALHNHYTQESLSHSPGK	–	2
